Target: His-PADI4 (human, UniProt Q9UM07 1-663)
Assay: pull-down

His-PADI4, sequence (Q9UM07 whole entry): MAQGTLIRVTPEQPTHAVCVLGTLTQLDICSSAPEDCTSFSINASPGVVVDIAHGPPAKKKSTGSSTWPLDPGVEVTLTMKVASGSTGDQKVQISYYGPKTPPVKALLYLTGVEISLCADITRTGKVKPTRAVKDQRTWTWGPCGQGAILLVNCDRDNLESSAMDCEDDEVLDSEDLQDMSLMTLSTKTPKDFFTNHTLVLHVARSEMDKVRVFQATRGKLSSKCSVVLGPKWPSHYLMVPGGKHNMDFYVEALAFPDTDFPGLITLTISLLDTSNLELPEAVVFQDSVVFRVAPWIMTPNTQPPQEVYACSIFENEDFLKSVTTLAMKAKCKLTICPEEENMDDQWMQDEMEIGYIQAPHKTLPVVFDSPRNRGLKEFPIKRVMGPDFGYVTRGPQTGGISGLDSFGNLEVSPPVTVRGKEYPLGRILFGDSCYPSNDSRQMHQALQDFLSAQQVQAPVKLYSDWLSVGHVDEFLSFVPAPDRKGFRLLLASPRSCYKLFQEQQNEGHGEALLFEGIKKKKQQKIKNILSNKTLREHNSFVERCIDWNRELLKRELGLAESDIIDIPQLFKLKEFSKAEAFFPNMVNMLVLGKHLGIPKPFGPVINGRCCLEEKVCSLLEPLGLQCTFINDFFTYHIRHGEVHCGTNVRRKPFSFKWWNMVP

B1: GST-HIF-1α (575-786) (domain or fragment, human, UniProt Q16665 575-786, looked up)
chain: RSFDQLSPLESSSASPESASPQSTVTVFQQTQIQEPTANATTTTATTDELKTVTKDRMEDIKILIASPSPTHIHKETTSATSSPYRDTQSRTASPNRAGKGVIEQTEKSHPRSPNVLSVALSQRTTVPEEELNPKILALQNAQRKRKMEHDGSLFQAVGIGTLLQQPDDHAATTSLSWKRVKGCKSSEQNGMEQKTIILIPSDLACRLLGQS
binding result: binds
